Where two headings read alike, the source gives them in different places. Values belong to the binder of their own block, whether it stands above or below them.
Columns and labels:
[1] = target: T1, human tissue factor (TF) on human bladder carcinoma cells J82 (human, UniProt P13726 33-295); assay: cell ELISA on paraformaldehyde-fixed J82 cells; AP-conjugated goat anti-human IgGγ; absorbance 405/655 nm
T1 construct: whole, on cells; also called the antigen; J82 cells
Experimental: (§1) Cell ELISA plates for measurement of antigen binding were prepared as follows. Cells used were human bladder carcinoma cells J82 (ATCC HTB-1). To 60 wells of a 96-well cell culture plate, 1 ×10^5 J82 cells were inoculated. This was cultured (RPMI1640 medium containing 10% fetal bovine serum (GIBCO)) for one day in a CO_2 incubator to allow the cells to be attached thereto. After discarding the culture liquid, each well was washed twice with 300 μl PBS. 100 μl of PBS containing 4% paraformaldehyde (hereinafter referred to as PFA/PBS) was added to each well, and placed on ice for 10 minutes to immobilize the cells.
(§2) PFA/PBS was discarded, and each well was washed twice with 300 μl of PBS, and then blocked with 250 μl of DB. The culture supernatant or purified antibody was serially diluted with DB, 100 μl of which was added to each well. After incubating at room temperature for 2 hours followed by washing with RB, 100 μl of alkaline phosphatase-conjugated goat anti-human IgGγ antibody (BioSource) diluted 1000-fold with DB was added. After incubating for 1 hour followed by washing with RB, the substrate solution was added, and then absorbance at 405/655 nm was measured using the Microplate Reader (Bio-Rad).

[2] = target: T1, human tissue factor (TF) on human …; assay: as above; remark: listed apart in the source
Experimental: as §1, §2

[3] = target: T1, human tissue factor (TF) on human …; assay: as above; remark: listed apart in the source
Experimental: as §1, §2

[4] = target: TF/Factor VIIa complex (human, UniProt P13726 33-295; P08709 61-466); assay: cell-based or functional assay
[5] = target: T2, soluble human TF (human TF 1-219 with the FLAG peptide linked to the C-terminal) (human, UniProt P13726 33-251); assay: BIACORE; antibody captured on Protein G chip, soluble TF as analyte; mean ± SD, n = 3
T2 construct: Entry is the whole soluble construct (TF 1-219 followed by FLAG peptide M2); also called soluble TF; shTF
Experimental: Kinetic analysis of the antigen-antibody reaction was carried out using BIACORE. The recombinant Protein G was immobilized on a sensor chip, to which the antibody was coupled. The purified recombinant TF (a soluble TF in which the FLAG peptide was tagged at 1-219) was used as the antigen, and the-soluble TF prepared at various concentrations were used as analytes. From the sensorgram obtained, kinetic parameters (dissociation rate constants kdiss, and binding rate constants kass) were calculated.
As the running buffer, the HBS-EP buffer was used. Ten μl Of […] antibody solution was injected at a flow rate of 20 μl/min to immobilize antibody. The antibody was diluted with the HBS-EP buffer. Forty μl Of the soluble human TF solution at various concentrations were injected at a flow rate of 30 μl/min thereto. In the analysis, 80 seconds for injection was set as the binding phase and then changed to the HBS-EP buffer to set the dissociation phase of 120 seconds. After the dissociation phase was over, 10 μl of 20 mM hydrochloric acid was injected to reconstitute the sensor chip. The binding, dissociation, and reconstitution were set as one cycle, and the sensorgram was obtained for each antibody. The soluble human TF solution was prepared at concentrations of 250 nM, 125 nM, 62.5 nM, 31.3 nM, 15.6 nM, 7.81 nM, and 3.91 nM using the HBS-EP buffer. As the blank, the sensorgram obtained by injecting the HBS-EP buffer used for dilution was used.
The data file of interest was read in, and the comparison of reaction patterns by superscription was made using as the baseline the sensorgram of the HBS-EP buffer. Furthermore, using an analytical application software "BIAevaluation 2.1" (Pharmacia) exclusively for BIACORE that calculates kinetic parameters (binding rate constants kass and dissociation rate constants kdiss) by curve-fitting, kinetic analysis of interaction was performed. In order to determine the binding rate constants kass, the analysis model type 4 was used (BIAevaluation 2.1 Software Hand book, A1-A5). Based on the values calculated from each flow cell, kinetic parameters for each antibody were obtained.

[6] = target: T1, human tissue factor (TF) on human …; assay: cell ELISA on paraformaldehyde-fixed J82 cells; AP-conjugated goat anti-human IgGγ; absorbance 405/655 nm; remark: listed apart in the source
Experimental: as §1, §2

[7] = target: T1, human tissue factor (TF) on human …; assay: as above; remark: listed apart in the source
Experimental: as §1, §2

T1 sequence (P13726 33-295): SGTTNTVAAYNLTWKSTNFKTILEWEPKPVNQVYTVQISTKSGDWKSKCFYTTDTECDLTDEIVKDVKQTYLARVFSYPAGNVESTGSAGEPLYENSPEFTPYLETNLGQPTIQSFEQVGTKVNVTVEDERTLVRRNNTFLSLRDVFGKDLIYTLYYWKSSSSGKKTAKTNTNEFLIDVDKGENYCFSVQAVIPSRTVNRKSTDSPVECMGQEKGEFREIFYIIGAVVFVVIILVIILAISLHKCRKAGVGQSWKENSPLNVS
Sequence of TF/Factor VIIa complex (P13726 33-295 limits assumed, chain 1 of 2): as the sequence (P13726 33-295) above
Sequence of TF/Factor VIIa complex (P08709 61-466 limits assumed, chain 2 of 2): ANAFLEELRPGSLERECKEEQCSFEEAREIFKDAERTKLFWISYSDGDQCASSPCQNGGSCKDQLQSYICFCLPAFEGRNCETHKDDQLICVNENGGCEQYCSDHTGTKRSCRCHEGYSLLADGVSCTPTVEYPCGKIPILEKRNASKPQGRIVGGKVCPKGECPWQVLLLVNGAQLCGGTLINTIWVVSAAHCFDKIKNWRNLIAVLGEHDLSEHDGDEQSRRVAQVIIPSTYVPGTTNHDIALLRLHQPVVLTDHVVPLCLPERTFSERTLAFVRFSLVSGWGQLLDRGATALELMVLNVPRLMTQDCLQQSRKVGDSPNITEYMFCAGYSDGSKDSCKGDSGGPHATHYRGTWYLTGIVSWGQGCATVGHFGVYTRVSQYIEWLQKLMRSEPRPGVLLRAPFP
T2 sequence (P13726 other isoform, or with tags, fused parts or gaps limits assumed): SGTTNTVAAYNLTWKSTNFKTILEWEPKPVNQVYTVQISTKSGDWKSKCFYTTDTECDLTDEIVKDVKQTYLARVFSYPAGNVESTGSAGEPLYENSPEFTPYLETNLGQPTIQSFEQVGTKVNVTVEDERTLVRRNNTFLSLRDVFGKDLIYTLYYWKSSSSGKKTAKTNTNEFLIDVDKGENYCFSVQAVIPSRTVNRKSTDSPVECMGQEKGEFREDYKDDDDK

B2: H chain chimeric/L chain humanized version b antibody (antibody, IgG4, V domains shown)
VH: EVQLQQSGTNLVRPGALVKLSCKGSGFNIKDYYMHWVKQRPEQGLEWIGGNDPANGHSMYDPKFQGKASITADTSSNTAYLQLSSLTSEDTAVYFCARDSGYAMDYWGQGTSVTVSS
VL: DIQMTQSPSSLSASVGDRVTITCKASQDIKSFLSWYQQKPGKAPKLLIYYATSLADGVPSRFSGSGSGTDYTLTISSLQPEDFATYYCLQHGESPYTFGGGTKVEIK
notes: H chain V region is that of mouse ATR-5; also called ch-b
EC50 (read off the curve) [2]: ~0.08 µg/mL

B3: H chain humanized version a/L chain humanized version a antibody (antibody, IgG4, V domains shown)
VH: QVQLLESGAVLARPGTSVKISCKASGFNIKDYYMHWVKQRPGQGLEWIGGNDPANGHSMYDPKFQGRAKLTAATSASIAYLEFSSLTNEDSAVYYCARDSGYAMDYWGQGTLVTVSS
VL: DIQMTQSPSSLSASVGDRVTITCKASQDIKSFLSWYQQKPGKAPKLLIYYATSLADGVPSRFSGSGSGTDFTLTISSLQPEDFATYYCLQHGESPYTFGGGTKVEIK
EC50 (read off the curve) [3]: ~0.03 µg/mL

B4: H chain humanized version i/L chain humanized version b antibody (antibody, IgG4, V domains shown)
VH: QVQLLESGAVLARPGTSVKISCKASGFNIKDYYMHWVKQRPGQGLEWIGGNDPANGHSMYDPKFQGRVTITADTSTSTAYMELRSLRSDDTAVYYCARDSGYAMDYWGQGTLVTVSS
VL: DIQMTQSPSSLSASVGDRVTITCKASQDIKSFLSWYQQKPGKAPKLLIYYATSLADGVPSRFSGSGSGTDYTLTISSLQPEDFATYYCLQHGESPYTFGGGTKVEIK
IC50 (read off the curve) [4]: ~0.1 µg/mL
Kd [5]: 1.39 nM
koff [5]: 0.000649 s⁻¹
kon [5]: 467000 M⁻¹ s⁻¹

B6: H chain chimeric/L chain humanized version a antibody (antibody, IgG4, V domains shown)
VH: EVQLQQSGTNLVRPGALVKLSCKGSGFNIKDYYMHWVKQRPEQGLEWIGGNDPANGHSMYDPKFQGKASITADTSSNTAYLQLSSLTSEDTAVYFCARDSGYAMDYWGQGTSVTVSS
VL: DIQMTQSPSSLSASVGDRVTITCKASQDIKSFLSWYQQKPGKAPKLLIYYATSLADGVPSRFSGSGSGTDFTLTISSLQPEDFATYYCLQHGESPYTFGGGTKVEIK
notes: H chain V region is that of mouse ATR-5
EC50 (read off the curve) [7]: ~0.03 µg/mL

B7: H chain humanized version i/L chain humanized version b2 antibody (antibody, IgG4, V domains shown)
VH: QVQLLESGAVLARPGTSVKISCKASGFNIKDYYMHWVKQRPGQGLEWIGGNDPANGHSMYDPKFQGRVTITADTSTSTAYMELRSLRSDDTAVYYCARDSGYAMDYWGQGTLVTVSS
VL: DIQMTQSPSSLSASVGDRVTITCKASQDIKSFLSWYQQKPEKAPKSLIYYATSLADGVPSRFSGSGSGTDYTLTISSLQPEDFATYYCLQHGESPYTFGGGTKVEIK
notes: also called i-b2; ib2
IC50 (read off the curve) [4]: ~0.06 µg/mL
Kd [5]: 1.17 nM
koff [5]: 0.000635 s⁻¹
kon [5]: 544000 M⁻¹ s⁻¹

B8: H chain chimeric/L chain humanized version c antibody (antibody, IgG4, V domains shown)
VH: EVQLQQSGTNLVRPGALVKLSCKGSGFNIKDYYMHWVKQRPEQGLEWIGGNDPANGHSMYDPKFQGKASITADTSSNTAYLQLSSLTSEDTAVYFCARDSGYAMDYWGQGTSVTVSS
VL: DIQMTQSPSSLSASVGDRVTITCKASQDIKSFLSWYQQKPGKAPKLLIYYATSLADGVPSRFSGSGSGTDYTLTISSLQPEDIATYYCLQHGESPYTFGGGTKVEIK
notes: H chain V region is that of mouse ATR-5; also called ch-c
EC50 (read off the curve) [2]: ~0.07 µg/mL

B9: H chain chimeric/L chain humanized version b2 antibody (antibody, IgG4, V domains shown)
VH: EVQLQQSGTNLVRPGALVKLSCKGSGFNIKDYYMHWVKQRPEQGLEWIGGNDPANGHSMYDPKFQGKASITADTSSNTAYLQLSSLTSEDTAVYFCARDSGYAMDYWGQGTSVTVSS
VL: DIQMTQSPSSLSASVGDRVTITCKASQDIKSFLSWYQQKPEKAPKSLIYYATSLADGVPSRFSGSGSGTDYTLTISSLQPEDFATYYCLQHGESPYTFGGGTKVEIK
notes: H chain V region is that of mouse ATR-5; also called ch-b2
binding result [6]: binds

More lines, now with the values ahead:

EC50 (read off the curve) [1]: ~0.05 µg/mL
B1: H chain humanized version b/L chain humanized version c antibody (antibody, V domains shown)
VH: QVQLLESGAVLARPGTSVKISCKASGFNIKDYYMHWVKQRPGQGLEWIGGNDPANGHSMYDPKFQGRVTITADTSTNTAYMELSSLRSEDTAIYYCARDSGYAMDYWGQGTLVTVSS
VL: DIQMTQSPSSLSASVGDRVTITCKASQDIKSFLSWYQQKPGKAPKLLIYYATSLADGVPSRFSGSGSGTDYTLTISSLQPEDIATYYCLQHGESPYTFGGGTKVEIK
notes: also called b-c

binding result [6]: binds
B5: H chain humanized version j/L chain chimeric antibody (antibody, IgG4, V domains shown)
VH: QVQLLESGAVLARPGTSVKISCKASGFNIKDYYMHWVKQRPGQGLEWIGGNDPANGHSMYDPKFQGRVTFTADTSANTAYMELRSLRSADTAVYYCARDSGYAMDYWGQGTLVTVSS
VL: DIKMTQSPSSMYASLGERVTITCKASQDIKSFLSWYQQKPWKSPKTLIYYATSLADGVPSRFSGSGSGQDYSLTINNLESDDTATYYCLQHGESPYTFGGGTKLEIK
notes: L chain V region is that of mouse ATR-5; also called j-ch

EC50 (read off the curve) [6]: ~0.05 µg/mL
B10: H chain humanized version e/L chain chimeric antibody (antibody, IgG4, V domains shown)
VH: QVQLLESGAVLARPGTSVKISCKASGFNIKDYYMHWVKQRPGQGLEWIGGNDPANGHSMYDPKFQGRVSITADESTKIAYMELNSLRSEDTAVYFCARDSGYAMDYWGQGTLVTVSS
VL: DIKMTQSPSSMYASLGERVTITCKASQDIKSFLSWYQQKPWKSPKTLIYYATSLADGVPSRFSGSGSGQDYSLTINNLESDDTATYYCLQHGESPYTFGGGTKLEIK
notes: L chain V region is that of mouse ATR-5; also called e-ch

binding result [6]: binds
B11: H chain chimeric/L chain humanized version b1 antibody (antibody, IgG4, V domains shown)
VH: EVQLQQSGTNLVRPGALVKLSCKGSGFNIKDYYMHWVKQRPEQGLEWIGGNDPANGHSMYDPKFQGKASITADTSSNTAYLQLSSLTSEDTAVYFCARDSGYAMDYWGQGTSVTVSS
VL: DIQMTQSPSSLSASVGDRVTITCKASQDIKSFLSWFQQKPGKSPKTLIYYATSLADGVPSRFSGSGSGTDYTLTISSLQPEDFATYYCLQHGESPYTFGGGTKVEIK
notes: H chain V region is that of mouse ATR-5; also called ch-b1

IC50 (read off the curve) [4]: ~0.2 µg/mL
Kd [5]: 1.09 nM
koff [5]: 0.000506 s⁻¹
kon [5]: 465000 M⁻¹ s⁻¹
EC50 (read off the curve) [7]: ~0.04 µg/mL
EC50 (read off the curve) [3]: ~0.05 µg/mL
EC50 (read off the curve) [6]: ~0.07 µg/mL
EC50 (read off the curve) [2]: ~0.08 µg/mL
EC50 (read off the curve) [1]: ~0.04 µg/mL
B12: H chain chimeric/L chain chimeric antibody (chimeric ATR-5 antibody) (antibody, V domains shown)
VH: EVQLQQSGTNLVRPGALVKLSCKGSGFNIKDYYMHWVKQRPEQGLEWIGGNDPANGHSMYDPKFQGKASITADTSSNTAYLQLSSLTSEDTAVYFCARDSGYAMDYWGQGTSVTVSS
VL: DIKMTQSPSSMYASLGERVTITCKASQDIKSFLSWYQQKPWKSPKTLIYYATSLADGVPSRFSGSGSGQDYSLTINNLESDDTATYYCLQHGESPYTFGGGTKLEIK
notes: Mouse ATR-5 V regions joined to human C regions; Both an IgG1 (N5KG1(V)) and an IgG4 (N5KG4P) kappa form were made; also called ch-ch; cha-cha

EC50 (read off the curve) [6]: ~0.09 µg/mL
B13: H chain humanized version c/L chain chimeric antibody (antibody, IgG4, V domains shown)
VH: QVQLLESGAVLARPGTSVKISCKASGFNIKDYYMHWVKQRPGQGLEWIGGNDPANGHSMYDPKFQGRVTMLVDTSKNQFSLRLSSVTAADTAVYYCARDSGYAMDYWGQGTLVTVSS
VL: DIKMTQSPSSMYASLGERVTITCKASQDIKSFLSWYQQKPWKSPKTLIYYATSLADGVPSRFSGSGSGQDYSLTINNLESDDTATYYCLQHGESPYTFGGGTKLEIK
notes: L chain V region is that of mouse ATR-5; also called c-ch
